Publication PMC10341550, “Beta-Secretase 1 Recruits Amyloid-Beta Precursor Protein to ROCK2 Kinase, Resulting in Erroneous Phosphorylation and Beta-Amyloid Plaque Formation” (International Journal of Molecular Sciences, 2023)

How the values were obtained:
[1] = target: Full-length ROCK2 protein (human ROCK2 1–1388) (human) (UniProt O75116); test: SPR; Biacore X, CM5; full-length ROCK2 amine-coupled (1700 RU); analyte 7 µM with 100 µM MgATP (15-fold molar excess); HBS-EP pH 7.4, 10 µL/min
[2] = target: BACE1 cytoplasmic domain peptide (residues 479–501), N-terminally labelled with 5-FAM; test: fluorescence polarisation; direct titration: 50 nM fluorescein-labelled BACE1 peptide, dilution series of ROCK2; 20 mM Tris pH 8.0, 100 mM NaCl, 0.05% Brij35P, 2 mM DTT; 384-well plates

Chain of Full-length ROCK2 protein (human ROCK2 1–1388) (human) (O75116 whole entry, the tested form may be a part): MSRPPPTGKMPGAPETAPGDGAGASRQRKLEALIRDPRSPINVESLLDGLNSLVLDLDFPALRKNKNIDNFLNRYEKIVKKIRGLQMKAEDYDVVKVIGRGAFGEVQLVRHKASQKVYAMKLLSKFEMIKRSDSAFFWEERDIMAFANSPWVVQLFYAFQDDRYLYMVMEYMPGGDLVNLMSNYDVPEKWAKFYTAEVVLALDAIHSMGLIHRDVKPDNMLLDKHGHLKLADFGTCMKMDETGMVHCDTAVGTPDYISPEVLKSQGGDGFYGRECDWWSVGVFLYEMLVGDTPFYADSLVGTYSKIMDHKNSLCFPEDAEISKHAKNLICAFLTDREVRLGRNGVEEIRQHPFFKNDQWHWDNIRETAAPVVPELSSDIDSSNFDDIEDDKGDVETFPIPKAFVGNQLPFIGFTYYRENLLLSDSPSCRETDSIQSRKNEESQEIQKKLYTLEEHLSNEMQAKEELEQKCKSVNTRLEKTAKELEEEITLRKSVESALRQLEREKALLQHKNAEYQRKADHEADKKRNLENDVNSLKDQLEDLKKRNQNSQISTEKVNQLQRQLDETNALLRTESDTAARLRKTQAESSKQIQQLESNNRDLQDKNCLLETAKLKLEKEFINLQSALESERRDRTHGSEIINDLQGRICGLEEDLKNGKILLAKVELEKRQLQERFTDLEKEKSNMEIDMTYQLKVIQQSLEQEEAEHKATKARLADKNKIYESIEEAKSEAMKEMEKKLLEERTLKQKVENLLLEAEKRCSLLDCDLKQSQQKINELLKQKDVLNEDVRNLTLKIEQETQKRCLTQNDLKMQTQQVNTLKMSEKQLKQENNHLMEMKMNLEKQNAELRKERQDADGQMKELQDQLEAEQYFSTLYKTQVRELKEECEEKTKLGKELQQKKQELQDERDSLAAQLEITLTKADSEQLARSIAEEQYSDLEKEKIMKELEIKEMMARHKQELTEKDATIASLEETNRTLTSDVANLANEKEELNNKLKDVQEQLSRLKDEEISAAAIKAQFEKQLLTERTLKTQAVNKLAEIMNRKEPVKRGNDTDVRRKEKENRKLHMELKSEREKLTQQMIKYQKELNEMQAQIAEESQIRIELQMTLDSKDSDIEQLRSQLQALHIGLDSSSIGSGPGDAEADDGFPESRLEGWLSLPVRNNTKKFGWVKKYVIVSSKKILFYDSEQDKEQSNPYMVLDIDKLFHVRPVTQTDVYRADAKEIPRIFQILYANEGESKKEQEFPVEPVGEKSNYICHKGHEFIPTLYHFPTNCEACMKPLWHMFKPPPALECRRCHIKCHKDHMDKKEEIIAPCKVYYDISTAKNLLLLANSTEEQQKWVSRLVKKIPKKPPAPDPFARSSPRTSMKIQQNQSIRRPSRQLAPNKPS
Chain of ROCK2 kinase domain (27–417) construct (O75116 27-417): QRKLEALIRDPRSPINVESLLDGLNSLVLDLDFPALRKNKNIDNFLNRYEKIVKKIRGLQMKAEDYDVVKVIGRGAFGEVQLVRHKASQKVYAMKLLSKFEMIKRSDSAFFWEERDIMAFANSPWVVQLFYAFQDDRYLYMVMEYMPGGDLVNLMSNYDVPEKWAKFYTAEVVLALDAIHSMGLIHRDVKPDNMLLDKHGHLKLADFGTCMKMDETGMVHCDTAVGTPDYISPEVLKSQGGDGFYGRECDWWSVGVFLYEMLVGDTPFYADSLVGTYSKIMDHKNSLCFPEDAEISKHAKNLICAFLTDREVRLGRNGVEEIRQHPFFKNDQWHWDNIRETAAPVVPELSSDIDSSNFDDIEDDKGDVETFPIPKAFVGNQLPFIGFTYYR
Chain of Full-length ROCK2 protein (human ROCK2 1–1388) (O75116 whole entry): as the sequence (O75116 whole entry, the tested form may be a part) above

Row | percent of the theoretical signal [1] | response units [1] | Kd [2] | Substance
1 | 50% | 11 RU | – | BACE1 cytoplasmic domain peptide (residues 479–501), free form
2 | – | – | 18 µM | Full-length ROCK2 protein (human ROCK2 1–1388) (from UniProt O75116 1-1388) (enzyme)
3 | – | – | 18 µM | ROCK2 kinase domain (27–417) construct (from UniProt O75116 27-417) (domain or fragment)
